# Experimental data as given in patent US20250339531A1 (FRED HUTCHINSON CANCER CENTER, published 2025).
# T1: 3×MYC-STAT1-S727E (UniProt P42224 1-750)
# T1 construct: In vitro translated in rabbit reticulocyte lysate; also called phospho-mimic STAT1-S727E; not shown: 3×MYC tag
# T1 sequence (looked up): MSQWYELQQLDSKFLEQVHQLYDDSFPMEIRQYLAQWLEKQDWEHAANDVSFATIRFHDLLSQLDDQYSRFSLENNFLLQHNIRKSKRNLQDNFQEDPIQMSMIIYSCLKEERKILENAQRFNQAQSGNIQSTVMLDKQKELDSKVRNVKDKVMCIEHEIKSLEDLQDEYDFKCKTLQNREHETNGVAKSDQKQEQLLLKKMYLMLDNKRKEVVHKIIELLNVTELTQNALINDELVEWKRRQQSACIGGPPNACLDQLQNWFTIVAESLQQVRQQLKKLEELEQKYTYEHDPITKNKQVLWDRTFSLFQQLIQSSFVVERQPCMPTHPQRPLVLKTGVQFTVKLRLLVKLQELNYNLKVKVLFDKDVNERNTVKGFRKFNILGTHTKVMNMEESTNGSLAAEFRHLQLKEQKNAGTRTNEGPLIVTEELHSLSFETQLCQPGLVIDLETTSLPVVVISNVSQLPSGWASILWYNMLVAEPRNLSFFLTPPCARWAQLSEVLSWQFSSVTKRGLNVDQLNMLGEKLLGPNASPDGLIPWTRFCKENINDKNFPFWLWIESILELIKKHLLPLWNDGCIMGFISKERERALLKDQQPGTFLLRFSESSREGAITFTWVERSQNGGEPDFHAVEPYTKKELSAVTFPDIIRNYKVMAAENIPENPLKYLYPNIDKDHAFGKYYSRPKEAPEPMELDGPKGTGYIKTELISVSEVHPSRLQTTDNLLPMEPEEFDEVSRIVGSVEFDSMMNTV
# T2: 3×MYC-STAT1-S727E phosphorylated at Y701 with JAK1 kinase (UniProt P42224 1-750, phosphorylated at Y701 with JAK1 kinase)
# T2 construct: In vitro translated in rabbit reticulocyte lysate; not shown: 3×MYC tag
# T2 sequence (looked up): T1 sequence (looked up)
# T3: Heterogeneous nuclear ribonucleoprotein M (Homo sapiens, UniProt P52272 2-730)
# T3 construct: also called HNRNPM
# T3 sequence (looked up): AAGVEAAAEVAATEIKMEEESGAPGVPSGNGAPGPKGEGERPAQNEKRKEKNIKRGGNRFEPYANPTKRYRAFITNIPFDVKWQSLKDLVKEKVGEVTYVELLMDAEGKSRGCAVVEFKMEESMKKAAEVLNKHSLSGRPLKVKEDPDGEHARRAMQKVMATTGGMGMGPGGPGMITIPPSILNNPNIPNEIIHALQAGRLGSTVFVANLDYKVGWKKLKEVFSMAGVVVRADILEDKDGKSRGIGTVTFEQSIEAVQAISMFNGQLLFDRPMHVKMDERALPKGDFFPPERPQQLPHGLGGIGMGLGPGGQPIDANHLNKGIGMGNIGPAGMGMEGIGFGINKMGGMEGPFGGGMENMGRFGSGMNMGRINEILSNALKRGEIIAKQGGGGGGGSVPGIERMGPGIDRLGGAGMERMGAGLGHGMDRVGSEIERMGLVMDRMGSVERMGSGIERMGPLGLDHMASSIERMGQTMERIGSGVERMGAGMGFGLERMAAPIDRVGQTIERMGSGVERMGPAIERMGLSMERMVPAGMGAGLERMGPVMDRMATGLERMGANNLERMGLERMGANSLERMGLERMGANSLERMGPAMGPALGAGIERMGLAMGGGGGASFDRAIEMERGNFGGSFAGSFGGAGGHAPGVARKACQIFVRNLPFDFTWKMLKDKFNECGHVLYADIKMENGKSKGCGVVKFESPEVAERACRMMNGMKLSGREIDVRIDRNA
# B1: i3XFLAG-NLS-CTDaa154-424 (other)
# chain: MDYKDHDGDYKDHDIDYKDDDDKPPKRMRREPKKKRKVGRAPAQAGGLCSAAPGGGHPAPSWVAFAHTGAWGTGLPAPHVPCAPGALPQGAFVSQAARAAPALQPSQAAPAEGISQPAPARGDFAYAAPAPPDGALSHPQAPRWPPHPGKSREDRDPQRDGLPGPCAVAQPGPAQAGPQGQGVLAPPTSQGSPWWGWGRGPQVAGAAWEPQAGAAPPPQPAPPDASASARQGQMQGIPAPSQALQEPAPWSALPCGLLLDELLASPEFLQQAQPLLETEAPGELEASEEAASLEAPLSEEEYRALLEEL
# notes: Doxycycline-induced in MB135 cells for co-IP; also called longCTD; iDUX4-CTD
# Experiments:
# [1] = molecular target: T4, Cyclin-dependent kinase 4 (Homo sapiens, UniProt P11802 2-303); assay: anti-FLAG co-IP LC-MS, exp 4, +Dox +IFNG
# T4 construct: also called CDK4
# Nucleolin = molecular target: T5, Nucleolin (Homo sapiens, UniProt P19338 2-710); assay: anti-FLAG co-IP LC-MS, exp 4, +Dox +IFNG
# T5 construct: also called NCL
# [2] = molecular target: T6, DNA-dependent protein kinase catalytic subunit (Homo sapiens, UniProt P78527 1-4128); assay: anti-FLAG co-IP LC-MS, exp 4, +Dox +IFNG
# T6 construct: also called PRKDC
# [3] = molecular target: T7, cDNA FLJ56329, highly similar to Myosin light polypeptide 6 (Homo sapiens); assay: anti-FLAG co-IP LC-MS, exp 4, +Dox +IFNG
# T7 construct: also called MYL6
# [4] = molecular target: T8, Polyadenylate-binding protein 1 (Homo sapiens, UniProt P11940 1-636); assay: anti-FLAG co-IP LC-MS, exp 4, +Dox +IFNG
# T8 construct: also called PABPC1
# [5] = molecular target: T9, Immunoglobulin kappa variable 2-40 (Homo sapiens); assay: anti-FLAG co-IP LC-MS, exp 4, +Dox +IFNG
# T9 construct: also called IGKV2-40
# 3×MYC-STAT1-S727E = molecular target: T1, 3×MYC-STAT1-S727E; assay: anti-FLAG IP of in vitro translated proteins, without JAK1 treatment, western
# Procedure: (§1) To phosphorylate the 3×MYC-STAT1 and 3×MYC-STAT1-S727E proteins at Y701, 20 μL of the TnT reaction was mixed with 8 μL of 5× Kinase Buffer A (ThermoFisher, Cat #PV3189), 4 uL 10 mM ATP (ThermoFisher, Cat #PV3227), 0.4 ug recombinant JAK1 kinase (ThermoFisher, Cat #PV4774), and then nuclease-free ddH2O to a final volume of 40 μL and incubated for 1 hour at 30° C. […] For IPs, the in vitro translated proteins were mixed and incubated for 15 minutes in a 37° C. water bath. […] (F3165) and incubated for 3 hours at 4° C. with gentle rotation. After immunoprecipitation of FLAG-tagged constructs, each sample was washed 3 times with 1 mL of ice-cold in vitro IP buffer in a 4° C. room. Then the immunoprecipitated proteins were eluted from the beads by incubation with 30 uL elution buffer (2×NuPage LDS Sample Buffer diluted with IP buffer) for 10 minutes at 70° C. at 1000 rpm.
# [6] = molecular target: T2, 3×MYC-STAT1-S727E phosphorylated at …; assay: anti-FLAG IP of in vitro translated proteins, with JAK1 treatment, western
# Procedure: as §1
# [7] = molecular target: T10, Proteasome subunit alpha type (Homo sapiens); assay: anti-FLAG co-IP LC-MS, exp 3, +Dox
# T10 construct: also called PSMA6
# [8] = molecular target: T4, Cyclin-dependent kinase 4; assay: anti-FLAG co-IP LC-MS, exp 3, +Dox
# [9] = molecular target: T6, DNA-dependent protein kinase catalytic …; assay: anti-FLAG co-IP LC-MS, exp 3, +Dox
# [10] = molecular target: T11, Heterogeneous nuclear ribonucleoprotein U (Homo sapiens, UniProt Q00839 2-825); assay: anti-FLAG co-IP LC-MS, exp 3, +Dox
# T11 construct: also called HNRNPU; HNRPU
# [11] = molecular target: ATP-dependent RNA helicase DDX3X (Homo sapiens, UniProt O00571 2-662); assay: anti-FLAG co-IP LC-MS, exp 3, +Dox
# [12] = molecular target: T3, Heterogeneous nuclear ribonucleoprotein …; assay: anti-FLAG co-IP LC-MS, exp 3, +Dox
# [13] = molecular target: T12, Nuclease-sensitive element-binding protein 1 (Fragment) (Homo sapiens, UniProt P67809 2-324); assay: anti-FLAG co-IP LC-MS, exp 3, +Dox
# T12 construct: also called YBX1
# [14] = molecular target: T9, Immunoglobulin kappa variable 2-40; assay: anti-FLAG co-IP LC-MS, exp 3, +Dox
# T6 sequence (P78527 whole entry): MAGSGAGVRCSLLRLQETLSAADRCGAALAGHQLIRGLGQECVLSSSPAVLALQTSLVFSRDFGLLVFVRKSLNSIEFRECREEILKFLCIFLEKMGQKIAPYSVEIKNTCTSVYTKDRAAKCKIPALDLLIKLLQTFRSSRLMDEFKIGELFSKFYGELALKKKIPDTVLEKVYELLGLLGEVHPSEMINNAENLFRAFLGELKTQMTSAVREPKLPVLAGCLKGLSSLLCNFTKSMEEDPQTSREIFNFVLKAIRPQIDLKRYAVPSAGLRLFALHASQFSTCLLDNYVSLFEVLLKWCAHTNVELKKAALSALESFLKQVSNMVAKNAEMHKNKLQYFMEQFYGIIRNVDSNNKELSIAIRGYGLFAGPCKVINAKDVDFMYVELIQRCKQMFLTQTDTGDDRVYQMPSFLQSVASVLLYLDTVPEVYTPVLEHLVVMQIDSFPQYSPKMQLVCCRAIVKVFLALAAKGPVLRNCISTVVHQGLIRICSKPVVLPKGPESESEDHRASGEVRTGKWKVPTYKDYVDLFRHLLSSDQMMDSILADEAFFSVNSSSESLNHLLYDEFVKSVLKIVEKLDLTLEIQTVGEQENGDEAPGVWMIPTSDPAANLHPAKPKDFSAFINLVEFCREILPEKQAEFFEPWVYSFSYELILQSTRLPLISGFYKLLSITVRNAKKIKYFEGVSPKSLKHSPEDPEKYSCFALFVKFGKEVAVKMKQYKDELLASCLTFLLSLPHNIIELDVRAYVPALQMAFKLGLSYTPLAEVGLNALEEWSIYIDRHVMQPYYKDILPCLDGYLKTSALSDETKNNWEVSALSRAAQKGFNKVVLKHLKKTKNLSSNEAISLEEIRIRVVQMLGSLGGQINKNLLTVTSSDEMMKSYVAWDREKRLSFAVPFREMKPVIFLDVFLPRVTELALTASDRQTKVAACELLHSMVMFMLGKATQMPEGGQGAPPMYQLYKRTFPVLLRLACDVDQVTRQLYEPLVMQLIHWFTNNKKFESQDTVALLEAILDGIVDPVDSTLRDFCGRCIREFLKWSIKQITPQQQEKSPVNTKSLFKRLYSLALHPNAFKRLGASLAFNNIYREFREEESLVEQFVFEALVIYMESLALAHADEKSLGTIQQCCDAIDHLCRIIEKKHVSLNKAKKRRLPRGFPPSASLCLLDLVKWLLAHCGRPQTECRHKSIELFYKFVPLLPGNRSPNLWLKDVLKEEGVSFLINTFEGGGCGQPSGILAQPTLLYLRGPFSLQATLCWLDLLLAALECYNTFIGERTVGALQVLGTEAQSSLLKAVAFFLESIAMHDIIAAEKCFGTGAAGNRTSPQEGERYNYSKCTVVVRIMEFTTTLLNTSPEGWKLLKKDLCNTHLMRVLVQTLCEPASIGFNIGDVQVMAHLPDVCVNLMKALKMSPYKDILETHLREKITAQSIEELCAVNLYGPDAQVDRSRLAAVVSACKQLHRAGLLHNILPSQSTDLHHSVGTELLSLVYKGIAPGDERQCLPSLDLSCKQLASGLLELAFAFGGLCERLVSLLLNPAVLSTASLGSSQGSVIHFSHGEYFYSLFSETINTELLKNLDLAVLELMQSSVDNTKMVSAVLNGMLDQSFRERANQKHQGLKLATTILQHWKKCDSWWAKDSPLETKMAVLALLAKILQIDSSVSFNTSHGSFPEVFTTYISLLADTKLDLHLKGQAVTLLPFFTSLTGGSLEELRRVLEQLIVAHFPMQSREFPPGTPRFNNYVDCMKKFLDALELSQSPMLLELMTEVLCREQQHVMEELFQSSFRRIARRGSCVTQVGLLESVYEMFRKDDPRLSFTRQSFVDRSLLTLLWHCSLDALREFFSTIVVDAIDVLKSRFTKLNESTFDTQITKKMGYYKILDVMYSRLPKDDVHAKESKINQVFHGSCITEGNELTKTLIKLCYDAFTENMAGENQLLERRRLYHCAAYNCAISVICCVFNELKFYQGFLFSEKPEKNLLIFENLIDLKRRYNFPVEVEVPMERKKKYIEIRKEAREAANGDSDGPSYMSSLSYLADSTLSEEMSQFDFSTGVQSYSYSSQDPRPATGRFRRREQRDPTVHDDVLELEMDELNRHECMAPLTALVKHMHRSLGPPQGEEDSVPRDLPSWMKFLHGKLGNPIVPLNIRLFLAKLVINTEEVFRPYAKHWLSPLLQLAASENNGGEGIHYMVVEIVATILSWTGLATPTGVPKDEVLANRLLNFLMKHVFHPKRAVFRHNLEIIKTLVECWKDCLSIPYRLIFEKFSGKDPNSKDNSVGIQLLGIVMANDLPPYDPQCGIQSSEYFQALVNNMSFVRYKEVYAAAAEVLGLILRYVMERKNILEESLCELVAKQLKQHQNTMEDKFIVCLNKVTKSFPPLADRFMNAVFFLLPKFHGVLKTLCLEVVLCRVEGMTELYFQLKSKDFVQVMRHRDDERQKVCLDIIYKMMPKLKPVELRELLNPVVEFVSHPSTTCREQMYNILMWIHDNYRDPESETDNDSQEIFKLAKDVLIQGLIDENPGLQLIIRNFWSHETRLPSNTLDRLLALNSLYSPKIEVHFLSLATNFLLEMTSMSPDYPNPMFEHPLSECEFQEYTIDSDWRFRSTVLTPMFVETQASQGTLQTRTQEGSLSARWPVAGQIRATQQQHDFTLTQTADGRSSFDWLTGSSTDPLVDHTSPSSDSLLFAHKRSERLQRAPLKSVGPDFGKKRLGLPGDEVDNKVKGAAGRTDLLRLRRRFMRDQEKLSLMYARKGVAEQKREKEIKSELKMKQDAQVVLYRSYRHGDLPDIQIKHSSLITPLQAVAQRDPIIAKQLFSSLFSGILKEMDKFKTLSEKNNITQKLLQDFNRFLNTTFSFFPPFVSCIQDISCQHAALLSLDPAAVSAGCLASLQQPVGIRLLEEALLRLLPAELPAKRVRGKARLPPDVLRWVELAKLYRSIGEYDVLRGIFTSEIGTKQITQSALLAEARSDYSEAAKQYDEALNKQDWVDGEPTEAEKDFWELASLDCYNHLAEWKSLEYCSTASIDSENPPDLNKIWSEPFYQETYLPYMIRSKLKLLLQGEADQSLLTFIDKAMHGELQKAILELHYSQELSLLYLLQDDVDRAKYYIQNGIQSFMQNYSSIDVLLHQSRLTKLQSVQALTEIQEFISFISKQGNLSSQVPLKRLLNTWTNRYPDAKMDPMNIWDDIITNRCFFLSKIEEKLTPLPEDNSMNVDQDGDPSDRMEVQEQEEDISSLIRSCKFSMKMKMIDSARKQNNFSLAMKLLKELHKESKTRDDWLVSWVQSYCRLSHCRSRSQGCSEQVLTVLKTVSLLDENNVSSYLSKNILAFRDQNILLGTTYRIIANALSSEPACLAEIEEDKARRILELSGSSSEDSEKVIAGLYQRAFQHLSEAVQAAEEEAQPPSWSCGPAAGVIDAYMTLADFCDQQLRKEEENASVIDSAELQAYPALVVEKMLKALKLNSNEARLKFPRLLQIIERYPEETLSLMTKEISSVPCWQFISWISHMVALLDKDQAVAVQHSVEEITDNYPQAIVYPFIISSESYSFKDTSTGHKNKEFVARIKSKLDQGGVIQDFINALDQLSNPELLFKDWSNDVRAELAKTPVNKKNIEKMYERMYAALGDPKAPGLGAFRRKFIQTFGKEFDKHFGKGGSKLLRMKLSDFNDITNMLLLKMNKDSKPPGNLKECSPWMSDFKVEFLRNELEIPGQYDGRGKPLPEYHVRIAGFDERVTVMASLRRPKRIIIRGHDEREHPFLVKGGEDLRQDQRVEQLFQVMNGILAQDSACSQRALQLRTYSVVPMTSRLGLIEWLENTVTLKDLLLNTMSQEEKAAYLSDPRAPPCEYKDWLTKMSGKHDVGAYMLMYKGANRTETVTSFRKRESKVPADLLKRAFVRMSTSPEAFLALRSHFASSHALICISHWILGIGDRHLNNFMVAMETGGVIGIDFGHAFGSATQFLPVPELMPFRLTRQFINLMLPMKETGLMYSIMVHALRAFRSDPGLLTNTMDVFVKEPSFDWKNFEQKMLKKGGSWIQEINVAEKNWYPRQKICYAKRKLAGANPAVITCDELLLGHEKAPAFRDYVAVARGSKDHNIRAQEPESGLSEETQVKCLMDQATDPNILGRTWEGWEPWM
# T9 sequence (A0A087WW87 20-121): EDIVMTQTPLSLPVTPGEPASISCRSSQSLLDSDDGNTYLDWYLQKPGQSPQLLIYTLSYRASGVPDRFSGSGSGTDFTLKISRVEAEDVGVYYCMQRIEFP
# T4 sequence (P11802 2-303 limits assumed): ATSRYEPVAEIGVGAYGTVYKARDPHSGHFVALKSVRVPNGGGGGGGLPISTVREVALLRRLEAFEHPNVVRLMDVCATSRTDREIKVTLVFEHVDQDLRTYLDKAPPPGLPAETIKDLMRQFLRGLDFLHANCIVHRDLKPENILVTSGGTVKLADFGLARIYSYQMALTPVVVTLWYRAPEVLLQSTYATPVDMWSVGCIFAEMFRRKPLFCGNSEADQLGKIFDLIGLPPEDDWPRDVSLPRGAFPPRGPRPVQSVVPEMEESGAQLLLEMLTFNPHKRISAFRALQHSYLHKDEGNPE
# T12 sequence (P67809 2-324 limits assumed): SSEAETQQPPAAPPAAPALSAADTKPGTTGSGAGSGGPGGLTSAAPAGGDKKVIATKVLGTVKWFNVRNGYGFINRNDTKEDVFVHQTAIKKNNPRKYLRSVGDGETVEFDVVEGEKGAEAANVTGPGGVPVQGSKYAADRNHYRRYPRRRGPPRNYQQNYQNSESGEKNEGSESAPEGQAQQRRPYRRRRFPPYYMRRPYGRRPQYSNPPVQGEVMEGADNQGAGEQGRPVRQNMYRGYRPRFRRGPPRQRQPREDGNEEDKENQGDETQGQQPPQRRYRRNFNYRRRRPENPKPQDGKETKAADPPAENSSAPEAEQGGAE
binder,measurement,setting,value
B1,PSMs,[1],11 PSMs
same,PSMs,Nucleolin,1 PSMs
same,PSMs,[2],2 PSMs
same,PSMs,[3],5 PSMs
same,PSMs,[4],3 PSMs
same,PSMs,[5],5 PSMs
same,binding result,3×MYC-STAT1-S727E,no binding
same,binding result,[6],no binding
same,PSMs,[7],1 PSMs
same,PSMs,[8],1 PSMs
same,PSMs,[9],3 PSMs
same,PSMs,[10],4 PSMs
same,PSMs,[11],29 PSMs
same,PSMs,[12],9 PSMs
same,PSMs,[13],5 PSMs
same,PSMs,[14],2 PSMs
